Where two headings read alike, the source gives them in different places.

Assay [1] deals with T1, human SIRPα v2 ECD recombinant protein (tag not given) (human).
T1 construct: extracellular domain; also called ELISA microplate coated human SIRPα v2 ECD
Put plainly: competitive ELISA, coated human SIRPα v2 ECD, blocked ligand mFc tagged human CD47 ECD. The protocol: (§1) Competitive ELISA assay was used to determine whether the purified chimeric antibodies can block CD47 and SIRPα interaction. Briefly, antibody and mFc tagged human CD47 ECD recombinant protein were co-incubated with ELISA microplate coated human SIRPα v1 ECD (FIGS. 6A and 6B) or human SIRPα v2 ECD (FIGS. 7A and 7B) recombinant protein. After washing, HRP labeled anti-mouse Fc 2nd antibody (Sigma) was added and incubated at 37° C. for 1 hour. Then, 100 μl/well of TMB solution (Biotechnology) was added. After incubation for 15 minutes at room temperature, the reaction was stopped by the addition of 50 μl of 1N HCl. OD 450 nm was read. Blocking ratio was determined by blockade of human CD47 ECD recombinant protein binding to ELISA microplate coated human SIRPα ECD recombinant protein. Other than 005, all antibodies as tested can block interaction between human CD47 and different human SIRPα variants.

Assay [2] addresses T2, human SIRPβL ECD recombinant protein (6×His tagged) (human, UniProt Q5TFQ8 30-371).
T2 construct: given variously as SIRPBL, SIRPBI and SIRPβI; Bought from Biointron; also called human SIRPBL ECD; human SIRPBI ECD
The assay is described as follows: ELISA, hSIRPβI ECD. The text has this:
(§2) Binding activity of the purified chimeric antibodies against SIRPβ and SIRPBI was detected by ELISA assay using recombinant proteins of human SIRPβ ECD (FIGS. 3A and 3B), human SIRPBI ECD (FIGS. 3D and 3E) and FACS assay using CHOK 1 cells stably expressing human SIRPB (FIG. 3C).

Assay [3] deals with T3, C57BL/6 mouse SIRPα ECD recombinant protein (6×His tagged) (C57BL/6 mouse, UniProt P97797 32-373).
T3 construct: extracellular domain; Bought from Biointron; not shown: 6×His tag
T3 sequence (looked up): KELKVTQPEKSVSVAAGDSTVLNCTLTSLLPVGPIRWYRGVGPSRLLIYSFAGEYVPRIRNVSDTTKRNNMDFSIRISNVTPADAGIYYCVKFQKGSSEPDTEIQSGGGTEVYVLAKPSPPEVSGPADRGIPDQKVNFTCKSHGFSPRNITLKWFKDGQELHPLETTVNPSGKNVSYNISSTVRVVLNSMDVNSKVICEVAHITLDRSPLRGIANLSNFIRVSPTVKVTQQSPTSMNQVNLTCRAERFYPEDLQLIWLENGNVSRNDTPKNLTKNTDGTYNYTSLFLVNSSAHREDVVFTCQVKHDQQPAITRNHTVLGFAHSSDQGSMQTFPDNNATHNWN
Put plainly: ELISA, recombinant C57BL/6 mouse SIRPα ECD. The text has this:
Species cross reactivity of purified chimeric antibodies was detected by ELISA assay using recombinant protein of C57BL/6 mouse SIRPα ECD (FIG. 5A) and FACS assay using CHOK 1 cells stably expressing cyno SIRPα (FIGS. 5B and 5C). All antibodies as tested bind to cyno SIRPα at different levels but have no species cross reactivity against C57BL/6 mouse SIRPα.
Background: In an ELISA, binding on a coated surface is turned into a signal by an enzyme label.

Assay [4] concerns the target T4, mFc tagged human SIRPα v1 ECD recombinant protein (human, UniProt P78324 31-373).
T4 construct: extracellular domain; Bought from Biointron; not shown: mouse IgG Fc (mFc) tag
Put plainly: competitive ELISA binning, mFc-SIRPα v1 ECD; competitor 042c. The procedure: Competitive ELISA assay was used for epitope binning of purified chimeric antibodies. Briefly excessive competitor antibody and mFc tagged human SIRPα v1 ECD recombinant protein were co-incubated with ELISA microplate coated antibody. After washing, HRP labeled anti-mouse Fc 2nd antibody (Sigma) was added and incubated at 37° C. for 1 hour. Then, 100 μl/well of TMB solution (Biotechnology) was added. After incubation for 15 minutes at room temperature, the reaction was stopped by the addition of 50 μl of 1N HCl. OD 450 nm was read. Competition ratio was calculated. The antibodies that can compete each other for binding to SIRPα may have related binding epitopes.

Assay [5] deals with T5, human SIRPα v1 ECD recombinant protein (tag not given) (human, UniProt P78324 31-373).
T5 construct: extracellular domain; also called biotin labeled soluble human SIRPα v1 ECD recombinant protein; ELISA microplate coated human SIRPα v1 ECD
T5 sequence (P78324 31-373): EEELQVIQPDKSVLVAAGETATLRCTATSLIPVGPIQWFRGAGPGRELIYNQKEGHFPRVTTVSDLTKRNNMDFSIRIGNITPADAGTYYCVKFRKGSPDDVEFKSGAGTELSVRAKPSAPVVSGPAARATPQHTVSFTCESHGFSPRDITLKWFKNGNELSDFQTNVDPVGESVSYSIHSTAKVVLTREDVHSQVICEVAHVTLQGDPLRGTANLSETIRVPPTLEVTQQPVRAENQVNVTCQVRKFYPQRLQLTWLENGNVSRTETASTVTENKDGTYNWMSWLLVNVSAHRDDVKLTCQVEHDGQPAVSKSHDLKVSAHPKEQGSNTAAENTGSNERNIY
The assay is described as follows: competitive ELISA, mFc-CD47 ECD on coated SIRPα v1 ECD. The method in brief:
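Antibodies co-incubated with mFc-tagged human CD47 ECD on plates coated with human SIRPα v1 or v2 ECD. Bound CD47 detected with HRP anti-mouse Fc (1 h, 37° C) and TMB, read at OD 450 nm; blocking ratio derived from loss of CD47 binding.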

Assay [6] addresses T6, cyno SIRPγ ECD recombinant protein (cyno).
T6 construct: extracellular domain
Put plainly: ELISA, cyno SIRPγ ECD.

Assay [7] has as its target T7, human SIRPβ stably expressed on CHOK1 cells (human, UniProt O00241 30-398).
T7 construct: whole, on cells; also called CHOK1-human SIRPB; CHOK1-hSIRPβ
The assay is described as follows: FACS, CHOK1-hSIRPβ cells.
Description: as §2

For assay [8], the target named is T5, human SIRPα v1 ECD recombinant protein …. Put plainly: competitive ELISA, mFc-CD47 ECD on coated SIRPα v1 ECD. The protocol:
as §1
The humanized antibodies were tested for the ability to block CD47 and SIRPα interaction with competitive ELISA assay (refer to methods described in Example 4.2.3.).
The source holds these as a separate data set.

Assay [9] addresses T2, human SIRPβL ECD recombinant protein …. The assay is described as follows: ELISA, recombinant human SIRPβL (SIRPβI) ECD.
Description: as §2

Assay [10] addresses T8, human SIRPγ stably expressed on 293F cells (human, UniProt Q9P1W8 29-387).
T8 construct: whole, on cells
Put plainly: FACS, 293F-hSIRPγ cells. The text has this:
All the humanized antibodies as tested were confirmed to retain the similar activity as the parental antibody of 025c to bind to SIRP family members.
A general note: In flow cytometry, cells or beads pass a laser one at a time.

Assay [11] has as its target full length human SIRPα v1 with a small beta-gal fragment (ED) fused to its C-terminal, expressed in K562 … (human, UniProt P78324 31-504). The assay is described as follows: cell-based or functional assay.
In assay [12] the target is T9, full length human SIRPα v1 stably expressed on CHOK1 or 293F cells (human, UniProt P78324 31-504).
T9 construct: whole, on cells; also called CHOK1-human SIRPα v1; CHOK1-hSIRPα v1
T9 sequence (P78324 31-504): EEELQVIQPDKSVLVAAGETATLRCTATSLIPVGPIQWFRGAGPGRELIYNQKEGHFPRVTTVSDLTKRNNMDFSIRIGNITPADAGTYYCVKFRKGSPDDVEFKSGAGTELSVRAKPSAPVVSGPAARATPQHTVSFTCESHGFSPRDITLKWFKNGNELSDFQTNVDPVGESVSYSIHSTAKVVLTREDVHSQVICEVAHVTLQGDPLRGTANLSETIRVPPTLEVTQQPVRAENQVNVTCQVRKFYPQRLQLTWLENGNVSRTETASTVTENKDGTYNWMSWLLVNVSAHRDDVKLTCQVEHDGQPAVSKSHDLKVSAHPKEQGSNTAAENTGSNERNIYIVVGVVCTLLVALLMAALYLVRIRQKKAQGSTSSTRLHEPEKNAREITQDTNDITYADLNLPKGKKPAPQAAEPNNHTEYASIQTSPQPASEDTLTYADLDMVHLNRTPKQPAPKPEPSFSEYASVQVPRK
The assay is described as follows: FACS, CHOK1-hSIRPα v1 cells.

T2 sequence (Q5TFQ8 30-371 limits assumed): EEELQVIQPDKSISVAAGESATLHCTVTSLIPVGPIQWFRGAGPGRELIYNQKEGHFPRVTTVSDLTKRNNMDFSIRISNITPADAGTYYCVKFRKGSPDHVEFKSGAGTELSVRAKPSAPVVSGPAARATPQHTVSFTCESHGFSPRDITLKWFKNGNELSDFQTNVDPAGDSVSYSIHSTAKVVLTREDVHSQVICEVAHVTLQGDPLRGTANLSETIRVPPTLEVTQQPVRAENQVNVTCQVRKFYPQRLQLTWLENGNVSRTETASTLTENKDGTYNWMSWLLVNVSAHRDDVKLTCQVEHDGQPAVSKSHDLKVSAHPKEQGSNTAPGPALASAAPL
T8 sequence (Q9P1W8 29-387): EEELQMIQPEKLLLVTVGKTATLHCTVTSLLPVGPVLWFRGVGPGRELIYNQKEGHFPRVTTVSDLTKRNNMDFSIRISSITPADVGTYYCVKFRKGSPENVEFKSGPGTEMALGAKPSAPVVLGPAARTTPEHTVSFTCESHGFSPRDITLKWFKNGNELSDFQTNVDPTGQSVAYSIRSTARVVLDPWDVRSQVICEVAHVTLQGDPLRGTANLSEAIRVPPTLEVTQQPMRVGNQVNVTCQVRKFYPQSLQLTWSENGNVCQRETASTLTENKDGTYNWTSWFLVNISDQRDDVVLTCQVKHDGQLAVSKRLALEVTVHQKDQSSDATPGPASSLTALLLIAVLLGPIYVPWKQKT
Sequence of full length human SIRPα v1 with a small beta-gal fragment (ED) fused to its C-terminal, expressed in K562 … (P78324 31-504): as the sequence (P78324 31-504) above
T7 sequence (O00241 30-398): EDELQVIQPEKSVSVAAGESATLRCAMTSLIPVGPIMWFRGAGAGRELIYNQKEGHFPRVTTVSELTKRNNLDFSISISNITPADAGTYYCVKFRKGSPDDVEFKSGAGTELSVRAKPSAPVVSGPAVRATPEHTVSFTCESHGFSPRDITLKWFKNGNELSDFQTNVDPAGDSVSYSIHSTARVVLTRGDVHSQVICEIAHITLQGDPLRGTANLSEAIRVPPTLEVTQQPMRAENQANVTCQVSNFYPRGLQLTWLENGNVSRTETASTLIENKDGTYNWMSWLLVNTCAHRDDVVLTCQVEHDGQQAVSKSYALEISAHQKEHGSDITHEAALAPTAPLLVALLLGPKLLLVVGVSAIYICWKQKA
T4 sequence (P78324 31-373): as the sequence (P78324 31-373) above

B1: 025c (antibody, V domains shown)
VH: EVQLQQSGAELVKPGASVKLSCTASGFNIKDYYMHWVKQRTEQGLEWIGRIDPEDGETKYAPKFQGKATITADTSSNTAYLQLSSLTSEDTAVYYCDRGLAYWGQGTLVTVSA
VL: QIVLTQSPAIMSASPGEKVTLTCSASSSVSSSYLYWYQQKPGSSPKLWIYSTSNLASGVPARFSGSGSGTSYSLTISSMEAEDAASYFCHQWSSYPYTFGGGTKLEIK
notes: also called chimeric antibody 025c; parental antibody of 025c
For orientation: EC50 means the concentration needed to bring the measured effect to its halfway point. Broadly, the IC50 is the midpoint of a concentration-inhibition curve. What is called EC50 (read off the curve) is the concentration that produces a half-maximal response. On to B1, for which the “IC50 (read off the curve)” value in assay [1] was roughly 2 nM. The EC50 in assay [2] turned out to be 0.33 nM; in [6], 0.36 nM; in assay [7], 0.38 nM; in assay [10] it was 0.2 nM; in assay [12], 1.49 nM. Further, the “TOP OD450” value in assay [2] was found to be 2.8 OD450; in assay [6], 3.07 OD450. Besides, the binding result in [3] is on record as “no binding”. Moreover, the “% Competition” value in assay [4] worked out at 19.1%. For the same molecule, the IC50 stood at 2.12 nM in assay [5] and 2.03 nM in assay [8]. Further, the “TOP blocking (%)” value in assay [5] turned out to be 96.5%; in assay [8], 97.5%. Further, the “TOP MFI” value is 10900 MFI in [7], 22800 MFI in [10] and 77600 MFI in [12]. Besides, the “EC50 (read off the curve)” value in [9] was roughly 0.4 nM. The “SHP-1 recruitment blocking, IC50” value in [11] came to 0.08 nM. Further, the “SHP-1 recruitment blocking, TOP blocking (%)” value in assay [11] is 87%.

The values are drawn from patent US20250270315A1 (ELPISCIENCE SUZHOU BIOPHARMA, published 2025).
